Changes are numbered by the printed parent chain. Where two headings read alike, the source gives them in different places.
B1: Ala[Gln121, Leu168, Cys175]FGF21 (protein)
chain: HPIPDSSPLLQFGGQVRQRYLYTDDAQQTEAHLEIREDGTVGGAADQSPESLLQLKALKPGVIQILGVKTSRFLCQRPDGALYGSLHFDPEACSFRELLLEDGYNVYQSEAHGLPLHLPGQKSPHRDPAPRGPARFLPLPGLPPALPEPPGILAPQPPDVGSSDPLSLVGPSQGCSPSYAS
notes: FGF21 analogue
B2: 18-[[(1S)-4-[2-[2-[2-[2-[2-[2-(2-acetamidoethylamino)-2-oxo-ethoxy]ethoxy]ethylamino]-2-oxo-ethoxy]ethoxy]ethylamino]-1-carboxy-4-oxo-butyl]amino]-18-oxo-octadecanoic … (protein)
chain: B1 chain with G174C, C175R
B3: S{Beta-173}-[2-[2-[[2-[2-[2-[[2-[2-[2-[[(4S)-4-carboxy-4-(15-carboxypentadecanoyl-amino)butanoyl]amino]ethoxy]ethoxy]acetyl]amino]ethoxy]ethoxy]acetyl]amino]-ethylamino]-2-oxoethyl]-Ala[Gln121,Leu168, … (protein)
chain: B1 chain with Q173C, C175R
B4: S{Beta-176}-[2-[2-[[2-[2-[2-[[2-[2-[2-[[(4S)-4-carboxy-4-(15-carboxypentadecanoyl-amino)butanoyl]amino]ethoxy]ethoxy]acetyl]amino]ethoxy]ethoxy]acetyl]amino]-ethylamino]-2-oxoethyl]-Ala[Gln121,Leu168, … (protein)
chain: B1 chain with C175R, S176C
B5: S{Beta-174}-[2-[2-[[2-[2-[2-[[2-[2-[2-[[(4S)-4-carboxy-4-(13-carboxytridecanoyl-amino)butanoyl]amino]ethoxy]ethoxy]acetyl]amino]ethoxy]ethoxy]acetyl]amino]-ethylamino]-2-oxoethyl]-Ala[Gln121,Leu168,Cy … (protein)
chain: B1 chain with G174C, C175R
B6: 18-[[(1S)-4-[2-[2-[2-[2-[2-[2-(2-acetamidoethylamino)-2-oxo-ethoxy]ethoxy]ethylamino]-2-oxo-ethoxy]ethoxy]ethylamino]-1-carboxy-4-oxo-butyl]amino]-18-oxo-octadecanoic … (protein)
chain: B1 chain with G170C, C175R
B7: S{Beta-175}-[2-[2-[[2-[2-[2-[[2-[2-[2-[[(4S)-4-carboxy-4-(15-carboxypentadecanoyl-amino)butanoyl]amino]ethoxy]ethoxy]acetyl]amino]ethoxy]ethoxy]acetyl]amino]-ethylamino]-2-oxoethyl]-Ala[Gln121,Leu168, … (protein)
chain: B1 chain
B8: 16-[[(1S)-4-[2-[2-[2-[2-[2-[2-(2-acetamidoethylamino)-2-oxo-ethoxy]ethoxy]ethylamino]-2-oxo-ethoxy]ethoxy]ethylamino]-1-carboxy-4-oxo-butyl]amino]-16-oxo-hexadecanoic … (protein)
chain: B1 chain with G174C, C175R
B9: Ala[Gln121, Cys168]FGF21 (protein)
chain: AHPIPDSSPLLQFGGQVRQRYLYTDDAQQTEAHLEIREDGTVGGAADQSPESLLQLKALKPGVIQILGVKTSRFLCQRPDGALYGSLHFDPEACSFRELLLEDGYNVYQSEAHGLPLHLPGQKSPHRDPAPRGPARFLPLPGLPPALPEPPGILAPQPPDVGSSDPLSCVGPSQGRSPSYAS
modifications: N-terminal Ala
B10: Ala[Gln121, Leu168, Cys174]FGF21 (protein)
chain: B9 chain with C169L, R176C
modifications: N-terminal Ala
notes: FGF21 analogue
B11: Ala[Gln121, Leu168, Cys169]FGF21 (protein)
chain: B9 chain with C169L, V170C
modifications: N-terminal Ala
B12: Ala[Gln121, Leu168, Cys171]FGF21 (protein)
chain: B9 chain with C169L, S173C
modifications: N-terminal Ala
notes: FGF21 analogue
B13: Ala[Gln121, Leu168, Cys173]FGF21 (protein)
chain: B9 chain with C169L, G175C
modifications: N-terminal Ala
notes: FGF21 analogue
B14: Ala[Gln121, Leu168, Cys172]FGF21 (protein)
chain: B9 chain with C169L, Q174C
modifications: N-terminal Ala
notes: FGF21 analogue
B15: Ala[Gln121, Leu168, Cys170]FGF21 (protein)
chain: B9 chain with C169L, G171C
modifications: N-terminal Ala
B16: Ala[Gln121, Cys167, Leu168,]FGF21 (protein)
chain: B9 chain with S168C, C169L
modifications: N-terminal Ala
B17: Ala[Gln121, Leu168, Cys177]FGF21 (protein)
chain: B9 chain with C169L, P178C
modifications: N-terminal Ala

Target: FGF receptor/BKL complex
Assay: FGF receptor potency in an Erk phosphorylation assay in HEK293 overexpressing human BKL
Assay type: cell-based
Settings: for EC50: HEK293/BKL cells, pERK after 12 minutes
Experimental: In order to test the binding of the FGF21 derivatives to albumin, the assay was performed in the absence of serum albumin as well as in the presence of human serum albumin (HSA) (0.1% final assay concentration). An increase in EC50 value (decrease in potency) in the presence of serum albumin for FGF21 derivatives would indicate binding to serum albumin and represents a method to predict a protracted pharmacokinetic profile of the test substance in animal models. MetFGF21 (SEQ ID NO:2) is included for reference.
HEK293 cells endogenously express several FGF receptors, including FGFR1c, FGFR3c and FGFR4. These cells are unresponsive to FGF21 until transfected with the co-receptor beta-klotho (BKL). Activation of the FGF receptor/BKL complex leads to activation of the MAPK/ERK signalling pathway and phosphorylation of ERK. The level of phosphorylated ERK (pERK) at a given time point increases with increasing concentrations of FGF21. As described below the level of pERK is measured after 12 minutes of stimulation with a range of FGF21 analogue concentrations.
The HEK293/beta-klotho cells are seeded with 30.000 cells/well in 96 well plates in DMEM (BioWhittaker #BE12-604F/U1), supplemented with 10% FCS (Gibco #16140-071), 1% penicillin/streptomycin (Gibco #15140), 100 µg/ml Hygromycin B, (Calbiochem, # 400052). Two days later and 2 hours before addition of compound the cell medium is exchanged with 100 ∞l basal medium (DMEM (BioWhittaker #BE12-604F/U1)). The FGF21 analogues are diluted in assay medium (DMEM (BioWhittaker #BE12-604F/U1) supplemented with 0.02% Tween20), warmed to 37° C., added to the cells (100 μl) and incubated at 37° C. for 12 minutes. The FGF21 derivatives were also tested in the presence of 0.1% HSA (Sigma—A1887). All medium is quickly removed and 50 μl lysis buffer is added pr. well. The plate is shaken for 5 minutes and the lysate is ready for measurement of pERK. pERK is measured in 384 well plates with the AlphaScreen SureFire kit (PerkinElmer #TGRES10K). This kit is based on ERK and pERK specific antibodies coupled to donor and acceptor beads. The presence of pERK will bring acceptor and donor beads in close proximity and a signal is generated that is read on EnVision. The data are analysed using GraphPad Prism and the potency of the FGF21 proteins is described as absolute EC50 value.

[1] = presence of 0.1% HSA, read-out: EC50 (0.1% HSA)

FGF receptor/BKL complex, sequence (Q86Z14 whole entry, one chain of several): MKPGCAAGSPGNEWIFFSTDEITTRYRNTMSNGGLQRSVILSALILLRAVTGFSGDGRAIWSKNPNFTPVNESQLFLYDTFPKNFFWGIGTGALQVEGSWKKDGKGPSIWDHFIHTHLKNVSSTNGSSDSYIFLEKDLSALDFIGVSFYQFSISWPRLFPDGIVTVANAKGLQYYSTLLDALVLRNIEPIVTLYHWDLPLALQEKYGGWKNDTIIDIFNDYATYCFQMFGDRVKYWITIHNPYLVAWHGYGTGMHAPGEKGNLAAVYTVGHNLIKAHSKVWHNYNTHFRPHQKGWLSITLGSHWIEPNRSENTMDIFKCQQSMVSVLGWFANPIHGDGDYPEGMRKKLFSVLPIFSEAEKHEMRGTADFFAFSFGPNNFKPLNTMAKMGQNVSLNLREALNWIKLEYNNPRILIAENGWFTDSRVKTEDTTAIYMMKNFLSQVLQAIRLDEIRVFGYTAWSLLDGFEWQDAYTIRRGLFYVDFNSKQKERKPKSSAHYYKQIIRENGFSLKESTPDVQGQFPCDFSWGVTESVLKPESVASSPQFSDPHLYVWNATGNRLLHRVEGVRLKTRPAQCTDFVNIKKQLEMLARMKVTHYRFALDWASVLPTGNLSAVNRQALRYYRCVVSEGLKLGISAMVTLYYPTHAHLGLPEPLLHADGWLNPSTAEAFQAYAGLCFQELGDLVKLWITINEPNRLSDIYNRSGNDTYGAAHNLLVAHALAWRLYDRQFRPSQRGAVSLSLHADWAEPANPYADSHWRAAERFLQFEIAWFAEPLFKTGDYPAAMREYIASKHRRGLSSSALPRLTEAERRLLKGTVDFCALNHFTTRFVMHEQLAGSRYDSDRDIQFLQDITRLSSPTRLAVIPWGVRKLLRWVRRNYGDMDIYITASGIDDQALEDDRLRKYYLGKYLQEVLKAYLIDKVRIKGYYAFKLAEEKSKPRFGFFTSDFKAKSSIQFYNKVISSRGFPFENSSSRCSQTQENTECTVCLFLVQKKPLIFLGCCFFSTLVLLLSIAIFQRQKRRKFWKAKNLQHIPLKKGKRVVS

Row | Molecule | EC50 (absence of HSA, read-out: EC50) | EC50 [1] | potency in HEK293/BKL cells compared with MetFGF21 or corresponding analogue (in words) (absence of HSA)
1 | S{Beta-168}-[2-[2-[[2-[2-[2-[[2-[2-[2-[[(4S)-4-carboxy-4-(13-carboxytridecanoyl-amino)butanoyl]amino]ethoxy]ethoxy]acetyl]amino]ethoxy]ethoxy]acetyl]amino]-ethylamino]-2-oxoethyl]-Ala[Gln121,Cys168]FGF21 [Compound 34] | 667 nM | 4260 nM | 
2 | B1 | 11 nM |  | 
3 | B2 | 1 nM | 1 nM | 
4 | B3 | 3 nM | 4 nM | 
5 | B4 | 214 nM | 373 nM | 
6 | B5 | 4 nM | 4 nM | 
7 | B6 | 1 nM | 20 nM | 
8 | B7 | 1 nM | 1 nM | 
9 | B8 | 2 nM | 4 nM | 
10 | B9 | 492 nM |  | decreased potency
11 | B10 | 5 nM |  | 
12 | B11 | 22 nM |  | 
13 | B12 | 8 nM |  | 
14 | B13 | 4 nM |  | 
15 | B14 | 5 nM |  | 
16 | B15 | 7 nM |  | 
17 | B16 | 4 nM |  | 
18 | B17 | 416 nM |  | 
